From patent US20100272750A1
Read-outs that look alike come from different tables or passages of the source.

Assays:
Assay in all cases: 125I-probe competition, purified HLA
[1] = target: HLA A0101 (human)
[2] = target: HLA A3002 (human)
[3] = target: HLA A2902 (human)
[4] = target: HLA A2601 (human)
[5] = target: HLA A3101 (human)
[6] = target: HLA A0301 (human)
[7] = target: HLA A1101 (human)
[8] = target: HLA A6801 (human)
[9] = target: HLA A2302 (human)
[10] = target: HLA A2402 (human)
[11] = target: HLA A0203 (human)
[12] = target: HLA A0202 (human)
[13] = target: HLA A0206 (human)
[14] = target: HLA A0201 (human)
[15] = target: HLA A6802 (human)
[16] = remark: other sources report otherwise

NTGILTVTY (modifications not checked) [HPV45.E2.332] showed an IC50 [1] of 337 nM, an IC50 [2] of 8720 nM and an IC50 [3] of 1400 nM. For the same binder, the IC50 [4] was 3.15 µM.

Work on KQGAMLAVFK (modifications not checked) [HPV18.E1.210] yielded an IC50 [5] of 519 nM, an IC50 [6] of 35 nM and an IC50 [7] of 11 nM. The IC50 [8] was 235 nM.

For VFTFPHAFPF (modifications not checked) [HPV45.E1.578], the IC50 [9] was 15.9 nM, the IC50 [3] was 57 nM and the IC50 [10] was 90.4 nM.

LQDKILDHY (modifications not checked) [HPV45.E2.17] showed an IC50 [1] of 32 nM, an IC50 [2] of 836 nM and an IC50 [4] of 5 µM.

With SVYGETLEK (modifications not checked) [HPV45.E6.84] the IC50 [5] was 6510 nM, the IC50 [6] was 21 nM and the IC50 [7] was 9.5 nM. For the same binder, the IC50 [8] was 7.2 nM.

In the case of ATTPIIHLK (modifications not checked) [HPV31.E2.291], the IC50 [5] is reported as 34 nM, the IC50 [6] is reported as 10 nM and the IC50 [7] is reported as 1.2 nM. It also gave an IC50 [8] of 2.5 nM.

Work on VFTFPNPFPF (modifications not checked) [HPV31.E1.565] yielded an IC50 [9] of 12 nM, an IC50 [3] of 603 nM and an IC50 [10] of 17 nM.

In the case of KLLSKLLCV (modifications not checked) [HPV16.E1.292], the IC50 [11] is reported as 23 nM, the IC50 [12] is reported as 67.7 nM and the IC50 [13] is reported as 125 nM. For the same binder, the IC50 [14] was 31 nM.

Work on KSAIVTLTY (modifications not checked) [HPV16.E2.329] yielded an IC50 [1] of 9 nM and an IC50 [2] of 6 nM.

AATKYPLLK (modifications not checked) [HPV16.E4.9] was tested, and the IC50 [6] was 59 nM and the IC50 [7] was 20 nM.

For VYGTTLEKL (modifications not checked) [HPV31.E6.83], the IC50 [9] was 8.2 nM, the IC50 [2] was 1240 nM and the IC50 [10] was 26 nM.

For FYSKVSEFRW (modifications not checked) [HPV31.E6.69], the IC50 [9] was 8.8 nM, the IC50 [2] was 1360 nM and the IC50 [3] was 1780 nM. It also gave an IC50 [10] of 4.5 nM.

LYGVSFSEL (modifications not checked) [HPV16.E1.214] was tested, and the IC50 [9] was 7.2 nM and the IC50 [10] was 3.1 nM.

Binder ATLQDIVLH (modifications not checked) [HPV18.E7.6] has an IC50 [5] of 543 nM, an IC50 [6] of 211 nM and an IC50 [7] of 11 nM.

TVSATQLVK (modifications not checked) [HPV18.E2.211] showed an IC50 [5] of 6140 nM, an IC50 [6] of 7 nM and an IC50 [7] of 4 nM. It also gave an IC50 [8] of 31 nM.

Binder MYVCCHVPL (modifications not checked) [HPV18.E5.14] has an IC50 [9] of 24 nM, an IC50 [2] of 4720 nM and an IC50 [10] of 15 nM.

VMDDSEIAY (modifications not checked) [HPV31.E1.349] gave an IC50 [1] of 18 nM, an IC50 [2] of 2550 nM and an IC50 [3] of 95 nM.

LSQMVQWAY (modifications not checked) [HPV16/31.E1.357] was tested, and the IC50 [1] was 21 nM, the IC50 [2] was 0.93 nM and the IC50 [3] was 122 nM. The IC50 [4] was 6.45 µM.

Binder SLQDIEITCV (modifications not checked) [HPV18.E6.24] has an IC50 [11] of 38 nM, an IC50 [12] of 25 nM and an IC50 [13] of 205 nM. For the same binder, the IC50 [14] was 153 nM.

For AFTDLTIVY (modifications not checked) [HPV31.E6.46], the IC50 [1] was 31 nM, the IC50 [2] was 71 nM and the IC50 [3] was 36 nM.

With VYDFAFRDLCI (modifications not checked) [HPV16.E6.49] the IC50 [9] was 8.9 nM and the IC50 [10] was 22 nM.

SYFGMSFIHF (modifications not checked) [HPV18/45.E1.491] gave an IC50 [9] of 4.3 nM, an IC50 [2] of 1540 nM and an IC50 [3] of 62 nM. It also gave an IC50 [10] of 17.5 nM.

STDLRDHIDY (modifications not checked) [HPV16.E2.23] was tested, and the IC50 [1] was 113 nM, the IC50 [2] was 17 nM and the IC50 [4] was 0.758 µM.

GTLGIVCPV (modifications not checked) [HPV16.E7.85.V9] was tested, and the IC50 [11] was 68 nM, the IC50 [15] was 32 nM and the IC50 [12] was 49 nM. The IC50 [13] was 33 nM and the IC50 [14] was 20 nM.

Binder GTGCNGWFY (modifications not checked) [HPV18/31.E1.11] has an IC50 [1] of 136 nM, an IC50 [2] of 9.1 nM and an IC50 [3] of 116 nM. The IC50 [4] was 3.08 µM.

VVFIYIPLF (modifications not checked) [HPV31.E5.64] showed an IC50 [9] of 108 nM, an IC50 [2] of 268 nM and an IC50 [3] of 302 nM. It also gave an IC50 [10] of 276 nM.

KSLFGMSLMK (modifications not checked) [HPV16.E1.483] was tested, and the IC50 [5] was 230 nM, the IC50 [6] was 3.9 nM and the IC50 [7] was 2 nM. It also gave an IC50 [8] of 887 nM.

In the case of GYNTFYIEF (modifications not checked) [HPV18.E2.168], the IC50 [9] is reported as 13 nM, the IC50 [2] is reported as 1260 nM and the IC50 [3] is reported as 835 nM.

For ILYAHIQCL (modifications not checked) [HPV18.E1.266], the IC50 [11, 16] was 10.2 nM, the IC50 [12, 16] was 8.5 nM and the IC50 [13, 16] was 236 nM. For the same binder, the IC50 [14, 16] was 33 nM.

Work on ATCVSHRGLY (modifications not checked) [HPV18.E2.154] yielded an IC50 [1] of 421 nM, an IC50 [2] of 28 nM and an IC50 [3] of 4210 nM. It also gave an IC50 [4] of 0.646 µM.

For PYLHSRLVVF (modifications not checked) [HPV31.E1.557], the IC50 [9] was 2.8 nM, the IC50 [2] was 2230 nM and the IC50 [3] was 4360 nM. The IC50 [10] was 38.7 nM.

Binder VYQFAFKDL (modifications not checked) [HPV45.E6.44] has an IC50 [9] of 1.1 nM, an IC50 [2] of 165 nM and an IC50 [10] of 4 nM.

For YYMTDAGTW (modifications not checked) [HPV18.E2.142], the IC50 [9] was 14 nM, the IC50 [2] was 2150 nM and the IC50 [3] was 3410 nM. It also gave an IC50 [10] of 3.2 nM.

QVDYYGLYY (modifications not checked) [HPV16.E2.151] gave an IC50 [1] of 2.7 nM, an IC50 [2] of 160 nM and an IC50 [3] of 25 nM. For the same binder, the IC50 [4] was 0.251 µM.

For KLLEKLLCI (modifications not checked) [HPV31.E1.272], the IC50 [11] was 2.4 nM, the IC50 [12] was 21 nM and the IC50 [13] was 51 nM. The IC50 [14] was 19 nM.

With LSSALEIPY (modifications not checked) [HPV31.E6.15] the IC50 [1] was 35 nM, the IC50 [2] was 175 nM and the IC50 [3] was 261 nM. For the same binder, the IC50 [4] was 4.11 µM.

In the case of STVSVGTAK (modifications not checked) [HPV18.E2.230], the IC50 [5] is reported as 1760 nM, the IC50 [6] is reported as 34 nM and the IC50 [7] is reported as 6 nM. The IC50 [8] was 10 nM.

RQMNMSQWIK (modifications not checked) [HPV45.E1.411] showed an IC50 [5] of 45 nM, an IC50 [6] of 15 nM and an IC50 [7] of 11 nM. It also gave an IC50 [8] of 2560 nM.

Binder QVVPAYNISK (modifications not checked) [HPV18.E2.61] has an IC50 [5] of 6660 nM, an IC50 [6] of 308 nM and an IC50 [7] of 14 nM. For the same binder, the IC50 [8] was 8 nM.

Binder VYVFCFLLPM (modifications not checked) [HPV18.E5.52] has an IC50 [9] of 57 nM, an IC50 [3] of 5280 nM and an IC50 [10] of 178 nM.

CLYLHIQSL (modifications not checked) [HPV16.E1.259] gave an IC50 [11] of 21 nM, an IC50 [15] of 1780 nM and an IC50 [12] of 45 nM. For the same binder, the IC50 [13] was 100 nM and the IC50 [14] was 73 nM.

Binder YYITETGIW (modifications not checked) [HPV45.E2.144] has an IC50 [9] of 2 nM and an IC50 [10] of 8.5 nM.

Work on ELDPVDLLCY (modifications not checked) [HPV45.E7.20] yielded an IC50 [1] of 26 nM, an IC50 [3] of 4290 nM and an IC50 [4] of 2.11 µM.

Work on KLTNKGICDL (modifications not checked) [HPV31.E6.90] yielded an IC50 [11] of 585 nM, an IC50 [12] of 440 nM and an IC50 [13] of 484 nM. It also gave an IC50 [14] of 205 nM.

For FVYIPLFLI (modifications not checked) [HPV16.E5.66], the IC50 [11] was 63 nM, the IC50 [15] was 251 nM and the IC50 [12] was 323 nM. For the same binder, the IC50 [13] was 59 nM and the IC50 [14] was 206 nM.

TLEKLTNTGLY (modifications not checked) [HPV18.E6.89] showed an IC50 [2, 16] of 476 nM and an IC50 [4, 16] of 0.265 µM.

For NTELYNLLI (modifications not checked) [HPV45.E6.95], the IC50 [1] was 32 nM and the IC50 [4] was 17.3 µM.
